From patent US20190070248A1 (BIONTECH, published 2019) come the findings set out here.

Positions of bridges follow the written chain, without caps; N, C: chain ends. No end group written: not given here. *: point of attachment. Biotin = O=C1N[C@H]2[C@H](CS[C@H]2CCCCC(=O)*)N1

Test [1] concerns the target T1, TR66 antibody (CD3ε specific antibody, clone TR66).
T1 construct: Whole antibody
Kind of test: apparent KD, peptide ELISA, biotinylated peptide on streptavidin plate, TR66 titrated, two-site saturation fit.

The target in test [2] is T1, TR66 antibody (CD3ε specific antibody, …). Kind of test: peptide ELISA, apparent KD against the parental peptide.

For ACTRPDDPQCGGGSK(Biotin) (disulfide 2-10 (inferred)) [aCD3-04-002 (ACTRPDDPQC-GGGS-K(Bio))], in test [1], the Kd is 78 nM. Besides, the “fold lower apparent KD than the parental peptide aCD3 C7C-4” value in test [2] was approximately 5 fold.

Turning to ACTRPGDPACGGGSK(Biotin) (disulfide 2-10 (inferred)) [aCD3-04-008 (ACTRPGDPAC-GGGS-K(Bio))], the Kd in test [1] was 164 nM.

With ACTRPDDPECGGGSK(Biotin) (disulfide 2-10 (inferred), also called TR66 mimotope aCD3-04-013) [aCD3-04-013 (ACTRPDDPEC-GGGS-K(Bio))], in test [1], the Kd turned out to be 4 nM. Moreover, in test [2], the “fold lower apparent KD than the parental peptide aCD3 C7C-4” value was approximately 100 fold.

For the molecule ACTRPDDPWCGGGSK(Biotin) (disulfide 2-10 (inferred)) [aCD3-04-014 (ACTRPDDPWC-GGGS-K(Bio))], the Kd in test [1] was found to be 111 nM.

In the case of WCTRPGDPQCGGGSK(Biotin) (disulfide 2-10 (inferred)) [aCD3-04-006 (WCTRPGDPQC-GGGS-K(Bio))], the Kd in test [1] worked out at 226 nM.

As for ACTRPGDPYCGGGSK(Biotin) (disulfide 2-10 (inferred)) [aCD3-04-009 (ACTRPGDPYC-GGGS-K(Bio))], the Kd in test [1] was 167 nM.

Regarding ACTRPEDPQCGGGSK(Biotin) (disulfide 2-10 (inferred)) [aCD3-04-007 (ACTRPEDPQC-GGGS-K(Bio))], in test [1], the Kd was 299 nM.

B1: aCD3 C7C-4 (ACTRPGDPQC-GGGS-K(Bio)) (peptide)
peptide: ACTRPGDPQCGGGSK(Biotin)
modifications: disulfide 2-10 (inferred)
notes: On the microarrays the peptide was immobilized covalently through a reactive moiety, not through K(Bio); also called clone 4; parental peptide
Turning to B1, in test [1], the Kd was found to be 370 nM.
